Laboratory results as given in PMC5703946, “Modification and functional adaptation of the MBF1 gene family in the lichenized fungus Endocarpon pusillum under environmental stress” (Scientific Reports, 2017).

Target: T1, His-yTBP (yeast TATA-box-binding protein) (S. cerevisiae, UniProt P13393 1-240)
T1 sequence (looked up): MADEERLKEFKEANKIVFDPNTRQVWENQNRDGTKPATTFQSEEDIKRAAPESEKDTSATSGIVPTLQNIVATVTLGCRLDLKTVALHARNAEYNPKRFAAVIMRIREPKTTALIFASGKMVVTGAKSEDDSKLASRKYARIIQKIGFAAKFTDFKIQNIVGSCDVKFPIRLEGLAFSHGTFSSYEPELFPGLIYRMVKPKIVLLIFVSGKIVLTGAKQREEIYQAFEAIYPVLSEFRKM
Test: pull-down; His-yTBP held on Ni-NTA agarose beads (from soluble E. coli lysate, washed three times); equal amounts of purified GST-MBF1 proteins or purified GST incubated with the beads for 4 h at 4 °C; beads washed three times; detected by immunoblot (Wes) with anti-His and anti-GST antibodies
Conditions: both partners purified

B1: GST-yMBF1 (Saccharomyces cerevisiae multiprotein-bridging factor 1) (natural protein, S. cerevisiae, UniProt O14467 1-151, looked up)
chain: MSDWDTNTIIGSRARAGGSGPRANVARSQGQINAARRQGLVVSVDKKYGSTNTRGDNEGQRLTKVDRETDIVKPKKLDPNVGRAISRARTDKKMSQKDLATKINEKPTVVNDYEAARAIPNQQVLSKLERALGVKLRGNNIGSPLGAPKKK
notes: MBF1 of Saccharomyces cerevisiae (amino acids 1 to 151 by the domain limits in the methods); source: E. coli BL21, purified (glutathione agarose beads, eluted)
binding result: binds
